The values below are quoted from earlier work in PMC6470598.

pKd: −log10 of the molar value.

The data set concerns the target CTLA-4 (Homo sapiens) (UniProt P16410).
Chain of UniProt P16410 (P16410 36-161): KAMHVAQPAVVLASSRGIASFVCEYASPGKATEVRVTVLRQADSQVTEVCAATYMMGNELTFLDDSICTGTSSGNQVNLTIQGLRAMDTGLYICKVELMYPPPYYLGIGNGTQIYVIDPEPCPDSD

Regarding tremelimumab, the pKd was 8.23.
